± gives the half width of the 95% confidence interval.
Assays:
[1] = folding stability dG unfold from trypsin proteolysis; higher = more stable
Method in brief: (§1)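 Sequencing followed digestion of designed mini-proteins with trypsin and chymotrypsin, each at 11 concentrations in threefold dilutions together with a no-protease condition. The mini-proteins were under 80 residues, had no cysteine, sat in a PA-tagged cDNA display construct, and were kept only if AlphaFold2 dimer inter-PAE was above 15. From the counts, Bayesian fitting gave K50, and unfolding free energy was derived against a sequence-predicted unfolded-state K50 and a shared folded-state K50, per protease or combined.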

[2] = folding stability dG unfold (combined trypsin and chymotrypsin); higher = more stable
Method in brief: as §1

[3] = folding stability dG unfold from chymotrypsin proteolysis; higher = more stable
Method in brief: as §1

| Sequence | folding stability dG unfold [1] | folding stability dG unfold [2] | folding stability dG unfold [3] |
| --- | --- | --- | --- |
| SAGSSAVEVDIDEELKEKLKKLIDPDKPIEITRLKTTTNETIILITEKGSGKKYIFTRNKEGKIEIKKSAGG [r19_70_JUSTAS] | 8.65 ± 0.255 kJ/mol | 9.97 ± 0.289 kJ/mol | 10.5 ± 0.272 kJ/mol |
| SAGGSGMTVEVSVDPSTGTIRIKIKYGDKEYEVTAPVTRLPDGTYAVELKISAPNGPLLETKEITLPLSAGG [r13_59_JUSTAS] | 10.3 ± 0.36 kJ/mol | 8.61 ± 0.364 kJ/mol | 7.37 ± 0.1 kJ/mol |
| SAGGSAIKIIPNGDGIYIKIWFNNQPHPIPIESPEDAEEQVKSILDKFQKRNGMDIPEDMKVEIYPSAGGSA [r15_496_TrROS] | 1.75 ± 0.226 kJ/mol | 4.16 ± 0.837 kJ/mol | 4.71 ± 0.586 kJ/mol |
| SAGGIDLSKLPKNSIVVITKVKVYPTKVGEPDGEGEGYVEVELRVFRNIPPTGKILSSPLPVKFKIASAGGS [r8_486_TrMRF] | 4.99 ± 0.167 kJ/mol | 4.91 ± 0.502 kJ/mol | 4.13 ± 1.05 kJ/mol |
| SAGGSAGMPLVTAPVTRDPNSDVVTLTVYDPRTGETHTYTSPGSVEEAVEAFREATGLPISEVVLESAGGSA [r15_101_JUSTAS] | 6.09 ± 0.326 kJ/mol | 6.31 ± 0.414 kJ/mol | 6.02 ± 0.238 kJ/mol |
| SAGGSAGGPEIEVRFPDGWYVKITVERPEDGKVTVKVEVYHPDPNGKPIPPETAKNLAKEFLNKSAGGSAGG [r6_235_TrROS] | 3.95 ± 0.314 kJ/mol | 2.8 ± 0.46 kJ/mol | 1.23 ± 0.502 kJ/mol |
| SAGMPEVKLLPKPDGSLVLVVVFEDKAIIIEFPPDGEGKIYIIDLKNNKITEIPFPSEDPLKAIKEALSSAG [r5_674_TrMRF] | 9.82 ± 0.36 kJ/mol | 15.6 ± 1.13 kJ/mol | 16.7 ± 0.879 kJ/mol |
| SAGGSAGGTIIIEVDTREDALEAARALAEALLPPGYRVEIVSVEEVDGRVYVAIEVRPVPEEELSAGGSAGG [r6_72_TrROS_Hall] | 10.1 ± 0.502 kJ/mol | 13.3 ± 0.502 kJ/mol | 13.6 ± 0.326 kJ/mol |
| SMTITVKPENIEEVLAQIKALAAKHPKPVTITLEMSPEEVEKLRKALEDAGYKVEVDEKTGKVRIEIKVPSA [r9_600_TrROS_Hall] | 18.9 ± 0.92 kJ/mol | 15.2 ± 0.31 kJ/mol | 12.7 ± 0.402 kJ/mol |
| SMKTITIPADTLSPEEIEALLKELGFDPEKIKISTEGDKLVVTVPDMIVFLTPPPPVPTVPPTNPERLAALS [r1_57_JUSTAS] | 2.69 ± 0.151 kJ/mol | 1.3 ± 0.628 kJ/mol | -0.589 ± 1.51 kJ/mol |
| SAGGSAGGSMYIVRIEVVNEETGKTEEIELEVSEEEAEELAKELAEKLPNIKEIKVEIRPLPESAGGSAGGS [r12_757_TrROS_Hall] | 5.72 ± 0.628 kJ/mol | 6.93 ± 0.879 kJ/mol | 8.2 ± 0.213 kJ/mol |
| SAGGSAGGSAGGSKKKVLYIKIDVKPNMTPEEVAKLLQEKFGVKIKKVEVENGYLKIYFSAGGSAGGSAGGS [r4_469_TrROS_Hall] | 11.8 ± 0.259 kJ/mol | 14.6 ± 0.201 kJ/mol | 15.9 ± 0.184 kJ/mol |
| SAGGSIVDRIRKILKEYGYTAQVERNGDGITIVVQFNKEQRKKIVSEIQEDFGYPIKIEVMPPGQELSAGGS [r16_514_TrROS] | 8.24 ± 0.251 kJ/mol | 8.51 ± 0.46 kJ/mol | 8.13 ± 0.113 kJ/mol |
| SAGGSAMIITFDKKTGKLTIYNKETGKKIEAEITKIEKIPEDKKYVKIKIKNKKTKKEFEFIFKIKSAGGSA [r15_209_TrROS_Hall] | 10.7 ± 0.669 kJ/mol | 15.9 ± 1.59 kJ/mol | 18.4 ± 0.418 kJ/mol |
| SAGPEKVREAARELFEKLNLPIVSEEAIEVGDAVLIRFEIPEIGTKITILAPVFENGEIKVIVKIEPVSSAG [r5_888_TrMRF] | 7.14 ± 0.289 kJ/mol | 6.89 ± 0.381 kJ/mol | 6.62 ± 0.134 kJ/mol |
| SAGGSAGGSAGGPLPGKPPLRLKLFTLTVRTRTYRKTEDGTWEEVEESEAEITVLVLEPVSAGGSAGGSAGG [r7_506_TrROS_Hall] | 14.4 ± 0.46 kJ/mol | 19.7 ± 0.586 kJ/mol | 20.9 ± 0.711 kJ/mol |
| GLTVTLDGNSLTVTADAGDKTVTVTAPVFHPEKGLVTVVTVTATREDGALVLHTESRTIRLPPLPPLHPDLS [r1_100_TrMRF] | 9.27 ± 1.21 kJ/mol | 15 ± 1.8 kJ/mol | 17.5 ± 2.38 kJ/mol |
| SAGGNWRIVEIPIKFPPGQDLTTIAKEIAKELLPPGEDVSINVEQRPNYMRIYIFYPEDGKPLWEIEISAGG [r13_724_TrROS] | 8.17 ± 0.226 kJ/mol | 10.8 ± 0.314 kJ/mol | 11.8 ± 0.201 kJ/mol |
| KTISSDELLELLGVSKSELKKLPLEAIVDEVKKALPPGVAVSAKAEPIPENPSYTIVVELKNGEPVTITLDS [r1_340_TrMRF] | 4.45 ± 0.172 kJ/mol | 4.03 ± 0.502 kJ/mol | 4.2 ± 0.109 kJ/mol |
| SAGGSAGGSAGGKKVTITITIKVKEGEEITINGKKITVKPGETITITITITVPPKKKKKSAGGSAGGSAGGS [r10_949_TrROS_Hall] | 6.57 ± 0.544 kJ/mol | 9.18 ± 1.72 kJ/mol | 9.97 ± 1.3 kJ/mol |
| SAGGSAKMVLVKIKVEGMSVEEVKKLLEEAGAKVVKIDEEKKVIIVEVSPEKAEELAKKLGFEVEVSAGGSA [r15_731_TrROS_Hall] | 14.1 ± 0.586 kJ/mol | 14.4 ± 0.36 kJ/mol | 14.3 ± 0.46 kJ/mol |

| Sequence | folding stability dG unfold [1] | folding stability dG unfold [2] | folding stability dG unfold [3] |
| --- | --- | --- | --- |
| SAGGSAGGSAGGGRVELELTFIREDGYAVKVRIEVDEDGNLRIEVEVVKLPPAASPEELSAGGSAGGSAGGS [r10_878_TrROS_Hall] | 13.5 ± 0.586 kJ/mol | 12 ± 0.368 kJ/mol | 9.67 ± 0.301 kJ/mol |
| SAGGSAGGSAGSMTPAEEKAREVEERLRREHPEFERVFVRVKEFRPETGEVTIEVEVEPRSAGGSAGGSAGG [r11_617_JUSTAS] | 1.22 ± 0.255 kJ/mol | -0.194 ± 0.502 kJ/mol | -2.68 ± 1.13 kJ/mol |
| SAGGSAGGSAGGMTITVNGPTATITYPDGSVETIPLTSPEEFEALKAAHPDVEATPASPSAGGSAGGSAGGS [r10_1211_JUSTAS] | 1.48 ± 0.197 kJ/mol | 4.04 ± 0.389 kJ/mol | 5.07 ± 0.0586 kJ/mol |
| SAMKYTITVKGDIESVRNFLLDKLDFDIEVSSTPDGTTVITITMDEEKVSELKELLKAHPNFPTTVNKESAG [r14_521_JUSTAS] | 11.5 ± 0.36 kJ/mol | 16 ± 0.46 kJ/mol | 17.3 ± 0.184 kJ/mol |
| SAGMPKTTVETEIRFVETEEGIEAVAEVRTETETRVVVIPGHLGPEEAIEVLEKLLEEEGLELSRVEIGSAG [r5_305_TrMRF] | 2.7 ± 0.134 kJ/mol | 2.27 ± 0.343 kJ/mol | 1.48 ± 0.159 kJ/mol |
| SAGGSAGGSGMMTVELTETIVSETSVVTEKVPEKGEFIVEVLETSVSVVRRTLPLALYQALLESAGGSAGGS [r12_723_JUSTAS] | 3.62 ± 0.297 kJ/mol | 3.3 ± 0.364 kJ/mol | 2.64 ± 0.406 kJ/mol |
| SAGKKKKKVKKKTVKLTITVKLKPGMTEEEALEKVKELAKALLPPGAKIKEVKFDKETKTVTVEIELTSAGG [r19_81_TrROS_Hall] | 9.01 ± 0.226 kJ/mol | 9.4 ± 0.795 kJ/mol | 8.38 ± 0.962 kJ/mol |
| SAGGSAGGSMYRVRIKVRNRETGEWLEIELEVPEGVTEEELKAALRELFPDAEIVDIEIEKLPSAGGSAGGS [r12_738_TrROS_Hall] | 15.4 ± 0.586 kJ/mol | 17.2 ± 0.837 kJ/mol | 18.1 ± 0.46 kJ/mol |
| SAGGSAGGSAGGSIVVRITPNPETGTVTIDVYRVLPPGVLRPGAGFTVPLSLIPPGAVVGSAGGSAGGSAGG [r7_455_TrMRF] | 4.07 ± 0.0753 kJ/mol | 4.54 ± 0.222 kJ/mol | 4.88 ± 0.197 kJ/mol |
| SAGGSMTTTTVTVTDPAGNTTTYTFPSSVPLEEIVEAVSKALGRPVTVLSVTTDPSGTTTVTLAVPGSAGGS [r8_285_JUSTAS] | 18.1 ± 1.26 kJ/mol | 21.6 ± 0.544 kJ/mol | 21.47 ± 0.197 kJ/mol |
| SASLPPGQVRSLPVDVTIETPEGQPRFTEPATLEPPPRLVVDVALPLPPGEVTITIRLPGPGVTLTIERSAG [r14_280_JUSTAS] | 2.35 ± 0.372 kJ/mol | 5.93 ± 1.55 kJ/mol | 6.4 ± 0.669 kJ/mol |
| SAGGSAGGSMKVYKLPGGYTVTVEPVDGGTLVTITLPDGSVKTKFVPPDEPVVVDPNGAKITVSAGGSAGGS [r12_281_JUSTAS] | 7.75 ± 0.297 kJ/mol | 9.59 ± 0.322 kJ/mol | 10.7 ± 0.151 kJ/mol |
| SEKPLVTLELELVVETEEQARAAVEALLAALPEEEIVDIRVEVEEVDVFENGELVGRRRRVRVTIVVRRPSA [r9_605_TrROS_Hall] | 18.1 ± 1 kJ/mol | 18.5 ± 1.05 kJ/mol | 17 ± 1.09 kJ/mol |
| SSSSSRTIEYPDSTLELTFTTTPLPDDTYRVPVQVTRYDPVTKTWSTRNLTVPFPPSDPEAAAEAVIARLLS [r1_171_JUSTAS] | 0.46 ± 0.418 kJ/mol | 1.48 ± 0.385 kJ/mol | 1.63 ± 0.46 kJ/mol |
| SAGPKIRTIIKEILKELNPDRPIEIHTHPDGFIIIVNPDDGRFIMIKIDPDGDIKISEVVPAEEMKKMMSAG [r5_852_TrROS] | 7.68 ± 0.138 kJ/mol | 6.22 ± 0.544 kJ/mol | 4.9 ± 0.243 kJ/mol |
| SAGMEKKTLTVTHPDGSEATVEVYKNPETGKYVTLVHYPETGKYEVFDDNGNLIATFGNGSAADAFKAISAG [r5_757_TrMRF] | 1.57 ± 0.226 kJ/mol | 6 ± 0.544 kJ/mol | 7.52 ± 0.418 kJ/mol |
| SAGGSMKLTTTTPDGKPFEADVTEYPTFYKITFKVGNKEYTLLANPSTNTVDGNVDGFPFKLKLNPSAGGSA [r2_194_TrMRF] | 5.34 ± 0.418 kJ/mol | 5.22 ± 0.753 kJ/mol | 5.23 ± 0.753 kJ/mol |
| SAMIVVEIEESRSPTSPERTVTVTVKKPDGTVVKTIPITVSGANPSATPEEVRALAEPIVEELVKKGLLSAG [r14_120_JUSTAS] | 6.02 ± 0.109 kJ/mol | 6.48 ± 0.544 kJ/mol | 6.14 ± 0.188 kJ/mol |
| SAGGMVILVKDKDGRWRELSEEEIRRLAEELERRYNLEVEEVELEDGERYYLIRIEPPEVPGLSEEELSAGG [r13_790_TrROS_Hall] | 8.24 ± 0.247 kJ/mol | 9.32 ± 0.879 kJ/mol | 8.98 ± 0.544 kJ/mol |
| SAEEAAKNFKPIRIRLRDPRGRLYEVERIELTPDGRLLITLRLPNETRTYLIEPDHPFPLPPDLIIEVEGSA [r9_993_TrMRF] | 11.5 ± 0.205 kJ/mol | 14 ± 0.335 kJ/mol | 15 ± 0.18 kJ/mol |
| SAGGSAGGSIRIIFPVDNPEQAENIAEEIAERFGIQIEDIEVEQVPNGMYIVTFEVKIPPEMISAGGSAGGS [r12_577_TrROS] | 10.1 ± 0.544 kJ/mol | 9.95 ± 0.402 kJ/mol | 9.54 ± 0.151 kJ/mol |

From the supplement of paper PMC12764529
